Results published in publication PMC4558565.
“And” between values parts separate entries of the source, which are not always exact repeats. Equal values may be shown once. Values belong to the molecule of their own block, whether it stands above or below them.

Columns and labels:
[1] = target: bZIP1-VENUSN (m29) signal relative to bZIP11-CFPN (m30) signal; experiment: multi-color BiFC in N. tabacum leaves, confocal microscopy; conditions: co-transformed with mCherry-tagged AKIN10; 115-118 nuclei; value is the median of the box plot; parent: est. 2.4; read off a plot
[2] = target: bZIP63 in which S29 or all three serines were mutated to alanine; experiment: two-hybrid; protoplast two-hybrid (P2H) in Arabidopsis leaf protoplasts; GAL4-AD and GAL4-BD fusions, GAL-UAS4::GUS reporter normalised to 35S::NAN; without and with co-transformation of AKIN10; 16 hr

other: VENUS/CFP (norm.) [1]: 1
Molecule: bZIP63 (split-CFP BiFC fusion) (from UniProt B9DGI8) S29A; S294A; S300A

% of the signal with wt bZIP63 [2]: 30% and 40%
B1: bZIP11 (protoplast two-hybrid fusion) (natural protein)
chain: MESSSSGTTSSTIQTSSGSEESLMEQRKRKRMLSNRESARRSRMKKQKLLDDLTAQVNHLKKENTEIVTSVSITTQHYLTVEAENSVLRAQLDELNHRLQSLNDIIEFLDSSNNNNNNNMGMCSNPLVGLECDDFFVNQMNMSYIMNQPLMASSDALMY

% of the signal with wt bZIP63 [2]: 30% and 40%
B2: bZIP63 (protoplast two-hybrid fusion) (natural protein)
chain: MEKVFSDEEISGNHHWSVNGMTSLNRSASEWAFNRFIQESSAAADDGESTTACGVSVSSPPNVPVDSEEYRAFLKSKLNLACAAVAMKRGTFIKPQDTSGRSDNGGANESEQASLASSKATPMMSSAITSGSELSGDEEEADGETNMNPTNVKRVKRMLSNRESARRSRRRKQAHLSELETQVSQLRVENSKLMKGLTDVTQTFNDASVENRVLKANIETLRAKVKMAEETVKRLTGFNPMFHNMPQIVSTVSLPSETSNSPDTTSSQVTTPEIISSGNKGKALIGCKMNRTASMRRVESLEHLQKRIRSVGDQ
